Measured values published in PMC8092709 (Journal of Virology, 2021).

T1: HCoV-229E S glycoprotein ectodomain trimer (S-trimer) (HCoV-229E, UniProt P15423 16-1116)
T1 sequence: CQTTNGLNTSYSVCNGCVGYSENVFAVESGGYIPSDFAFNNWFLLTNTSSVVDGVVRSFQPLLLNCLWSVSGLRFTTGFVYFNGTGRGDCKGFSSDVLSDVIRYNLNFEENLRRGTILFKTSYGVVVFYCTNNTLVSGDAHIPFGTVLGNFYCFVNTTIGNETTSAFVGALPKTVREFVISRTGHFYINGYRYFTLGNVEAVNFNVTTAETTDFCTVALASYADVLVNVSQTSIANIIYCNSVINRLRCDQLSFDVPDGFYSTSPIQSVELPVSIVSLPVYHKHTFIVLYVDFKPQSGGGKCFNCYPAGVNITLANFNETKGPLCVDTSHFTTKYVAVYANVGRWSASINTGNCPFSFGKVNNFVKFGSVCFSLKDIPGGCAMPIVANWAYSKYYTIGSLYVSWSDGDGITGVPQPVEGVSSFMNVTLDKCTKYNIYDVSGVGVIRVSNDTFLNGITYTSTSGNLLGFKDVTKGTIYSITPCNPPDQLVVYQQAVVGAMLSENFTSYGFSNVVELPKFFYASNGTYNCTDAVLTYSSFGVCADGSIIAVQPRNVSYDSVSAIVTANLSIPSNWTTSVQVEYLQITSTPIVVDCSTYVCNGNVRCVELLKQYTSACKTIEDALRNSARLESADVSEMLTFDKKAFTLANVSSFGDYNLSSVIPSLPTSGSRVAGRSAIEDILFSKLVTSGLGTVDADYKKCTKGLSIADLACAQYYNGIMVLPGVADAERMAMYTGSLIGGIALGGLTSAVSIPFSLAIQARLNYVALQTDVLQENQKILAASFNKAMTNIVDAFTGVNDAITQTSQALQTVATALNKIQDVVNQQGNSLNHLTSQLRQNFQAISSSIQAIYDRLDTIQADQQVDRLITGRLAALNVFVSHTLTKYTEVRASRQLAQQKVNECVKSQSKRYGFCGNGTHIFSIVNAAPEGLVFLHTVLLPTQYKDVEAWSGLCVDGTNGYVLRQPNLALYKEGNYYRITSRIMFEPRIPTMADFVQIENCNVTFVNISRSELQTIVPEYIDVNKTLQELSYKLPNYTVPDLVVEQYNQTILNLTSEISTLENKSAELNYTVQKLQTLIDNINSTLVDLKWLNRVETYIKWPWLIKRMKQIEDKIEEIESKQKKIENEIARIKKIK

B1: human aminopeptidase N (hAPN), residues 66 to 967 (receptor)
chain: DQSKAWNRYRLPNTLKPDSYRVTLRPYLTPNDRGLYVFKGSSTVRFTCKEATDVIIIHSKKLNYTLSQGHRVVLRGVGGSQPPDIDKTELVEPTEYLVVHLKGSLVKDSQYEMDSEFEGELADDLAGFYRSEYMEGNVRKVVATTQMQAADARKSFPCFDEPAMKAEFNITLIHPKDLTALSNMLPKGPSTPLPEDPNWNVTEFHTTPKMSTYLLAFIVSEFDYVEKQASNGVLIRIWARPSAIAAGHGDYALNVTGPILNFFAGHYDTPYPLPKSDQIGLPDFNAGAMENWGLVTYRENSLLFDPLSSSSSNKERVVTVIAHELAHQWFGNLVTIEWWNDLWLNEGFASYVEYLGADYAEPTWNLKDLMVLNDVYRVMAVDALASSHPLSTPASEINTPAQISELFDAISYSKGASVLRMLSSFLSEDVFKQGLASYLHTFAYQNTIYLNLWDHLQEAVNNRSIQLPTTVRDIMNRWTLQMGFPVITVDTSTGTLSQEHFLLDPDSNVTRPSEFNYVWIVPITSIRDGRQQQDYWLIDVRAQNDLFSTSGNEWVLLNLNVTGYYRVNYDEENWRKIQTQLQRDHSAIPVINRAQIINDAFNLASAHKVPVTLALNNTLFLIEERQYMPWEAALSSLSYFKLMFDRSEVYGPMKNYLKKQVTPLFIHFRNNTNNWREIPENLMDQYSEVNAISTACSNGVPECEEMVSGLFKQWMENPNNNPIHPNLRSTVYCNAIAQGGEEEWDFAWEQFRNATLVNEADKLRAALACSKELWILNRYLSYTLNPDLIRKQDATSTIISITNNVIGQGLVWDFVQSNWKKLFNDYGGGSFSFSNLIQAVTRRFSTEYELQQLEQFKKDNEETGFGSGTRALEQALEKTKANIKWVKENKEVVLQWFTENSK

Assays:
[1] = biological target: human aminopeptidase N (hAPN), residues 66 to 967 (human) (UniProt P15144); experiment: SPR
[2] = biological target: T1, HCoV-229E S glycoprotein ectodomain …; experiment: SPR

Row | Molecule | Kd [1] [nM] | koff [1] [s⁻¹] | kon [1] [M⁻¹ s⁻¹] | Kd [2] [nM] | koff [2] [s⁻¹] | kon [2] [M⁻¹ s⁻¹]
1 | HCoV-229E NTD-deficient S-trimer (S-trimer/ΔNTD) (from UniProt P15423 16-1116) (domain or fragment) | 2.12 | 4.1e-05 | 19400 | – | – | –
2 | B1 | – | – | – | 3.29 | 0.000121 | 36700
